Assay: label from the status in PepcDB records

Sequence	protein production
SDPDADRIGVAVRNNEGRMVLINGNEICSLLIYYSIMRRKELGDLHPDDYIVKTIVTTELIRDIAKKEHVSMFDCYTGFKWIAAVIRENEGRRRYIGGGEESYGFLWEDFIRDKSSVSACALFCEMAAWALDRGMSVYRLIRSIYLEYGLYYE	failed
MLRSVYEMTKISKIIDELNNQQADAAWITTPLNVYYFTGYRSEPHERLFALLIKKDGKQVLFCPKMEVEEVKASPFTGEIVGYLDTENPFSLYPQTINKLLIESEHLTVARQKQLISGFNVNSFGDVDLTIKQLR	not failed
MNHTSDTALLIVNLGTPEAPTAAAVRRYLGEFLSDRRVVSIPPLFWKPLLHMVILPIRGPRSASKYAKVWLQEGSPLSVYTRRIAEGLTQHLPDWRVAWAMRYGAPALTKALDALQAQQVRRIVILPLYPQYSTTTTASVQDVVEAWCKRTPQVQVECIQDYAEDPAWVAAVAASIRRHWQAHGRSEKLMFSFHGLPQRVANNGDPYPQRCQVSASLIAAALNLNESEWVLGYQSRFGAERWLQPYAEPTLWALAESGIRRFDLVCPGFSVDCLETLEEVALGFSETLAARGATMRYIPCLNDDPAHVQALAGLAQRALP	failed
ITSVQPPTGLQEWLKMFQSWSGPEKLLALDELIDSCEPTQVKHMMQVIEPQFQRDFISLLPKELALYVLSFLEPKDLLQAAQTCRYWRILAEDNLLWREKCKEEGIDEPLHIKRRKVIKPGFIHSPWKSAYIRQHRIDTNWRRGELKSPKVLKGHDDHVITCLQFCGNRIVSGSDDNTLKVWSAVTGKCLRTLVGHTGGVWSSQMRDNIIISGSTDRTLKVWNAETGECIHTLYGHTSTVRCMHLHEKRVVSGSRDATLRVWDIETGQCLHVLMGHVAAVRCVQYDGRRVVSGAYDFMVKVWDPETETCLHTLQGHTNRVYSLQFDGIHVVSGSLDTSIRVWDVETGNCIHTLTGHQSLTSGMELKDNILVSGNADSTVKIWDIKTGQCLQTLQGPNKHQSAVTCLQFNKNFVITSSDDGTVKLWDLKTGEFIRNLVTLESGGSGGVVWRIRASNTKLVCAVGSRNGTEETKLLVLDFDVDMK	failed
MHNAGKQVAAPLETPMPAATAALLAERADHPLYVASVEKGMRVLEAFDAARDSLSLTDIVQLTGMGKSAAQRFTHTWEALGYLAKDPQSRRYRLGPKVVELSYYFLRSDHLVSLAAPHLVALREHCGLAVNMSVLSGDDMIYLLRLPSRQLTLVEMLPGRRMPAWSNSAGRMLLSQRDDASVRDLLARAAPQLYTPRTQTDPQALLAEIRQAREDGYAITQDQVLLNQMGVATLLRDERRQPLAAISVTAAADEYPRARLVAEIVPQMLKAAYAICGA	failed
MDLPVMPPVKPMLAKSVAKIPPDMQYEAKWDGFRAIVFRDGTEVELGSRTGKPLTRYFPELVEALRDRLPERCVIDGEIVIARDGRLDFDALTERIHPAESRVRMLAEKTPASFVAFDLLALADDSLLDTPLTERRALLESALSGVTAPVHVAPATTDREVAEQWFEQYEGAGLDGVIAKPLTLRYRQDERAMFKVKHERTADVVVAGYRLHKSGPVVGSLLLGLYDDRGALQHVGVSAAFPMKRRAELVEELEPLRMEDAAGHPWAAWSNEAAHETARLPGAPSRWSGKKDLSWVPLRPERVAEVAYDHMENGARFRHTARFRRWRPDRTPESCTYAQLEEPVSYDLTEILGSRGLEHHHHHH	not failed
MATTKRVLYVGGLAEEVDDKVLHAAFIPFGDITDIQIPLDYETEKHRGFAFVEFELAEDAAAAIDNMNESELFGRTIRVNLAKPMRIKE	not failed
MAGGGNRRDEGSITIQSTNLFAALDTRKKKKKSDKAGKSKGSSKSREPEKEPEPQVYWAPTPLKVKSWADIDDEDDDDDYYATTAPPQSGWSTSLPSHTDSKDVHVEESESEEDILDEGDDDVEEEQEQETEVQVHPEPEVKKAPEVPAPPKEAERQLSKKERKKKELAELEALLADFGVAPKENNGLEESQEAGQEKKEDVNGEGEKKENAAGGESKASKKKKKKDKQKEVKESQEQQANNNADAVDEAAGSEPTEEESPIDVKERIKKLASMKKKKSGKEVDAAAKAAAEEAAARRKKLAAAKKKEKNHYNQQPVR	failed
MAQPSTTYKFELNLTDLDRNVYESVKQTIARHPSETEERMAVRLLAYALWYNENLSFGRGLSDVDEPALWEKSLDDRVLHWIEVGQPDADRLTWCSRRTERTSLLAYGSLRVWEGKVVSAVKNLKNLSIAAVPQEVLETLATDMPRSIKWDVMISEGTVFVTDDRGQHEVQLQWLLGERG	not failed
MSLAMQDFRPGVYRHYKGDHYLALGLARADETDEVVVVYTRLYARAGLPMSTRLLRIWNETVDTGAGPQPRFAYVGHVTPEQGEGHHHHHH	not failed
MDYPNQTSSALFHSSEPLGLNLVDYLRVLLSQYWLIIGIAIGATSLTFGVSLLLPQKFRATATLQIERDVPKVMNVDNLIPVESPLDRDFYQTQYQLLQSRSLARAVIRKMNLGREPMFKPLVDKVLSKVQSLPVNTRNTAIESALIEMMLNSLKIEPILNSRLVYVHFDSHDPTLSAKVANAYAKMFIENNQQRRSNAFSFAMKYLAGRLEQLRIKVDKSERNVVAYSTDEKIVSVGDEKPSLSAQNLSDLNALLASAQNERIRAEASWRQASIGDGLSIPQVLSNLLVQSLRTDQANMVNEYQQKLSMFKPEYPEMQRLKARIKENTKQINAEVFNIRQSLKAQYEAALRQENLLNDRIAVLEKDELDLKTRLIRYNLLEREAETDRQLYDALLQRYKEISVLGDVGSNNVTVVDAADIPSRPISPNLLMNTILGGIFGVFLGLTVAMVRYSMHGAKRINVMSVE	failed
MAHHHHHHSLDAAAATLPRKSGSVDRLVRLAEADMAGVNRLITDRMQSDVAIIPALAEHLIAAGGKRLRPLMTVAAARLAGADNDHFQKLAAAVEFIHTATLLHDDVVDGSQLRRGKVAAHLIWGGAQSVLVGDFLFARAFELMVETNSMKALEILARASRVIAEGEVLQLMRSHDLNLSQAVYLEIIQAKTAELFAAASEAGAVSAGVDVAKSEALRDYGLNLGLAFQLADDALDYGGATETLGKNAGDDFREGKATLPLLLAIARSGPREAEFWERAIGRREQTEADFRRARELIIGSGALDATLDLAADYADKAKAALAMFPANDWREALEELADFAVSRRA	not failed
GVAVEVRGLPPAVPDELLTLYFENRRRSGGGPVLSWQRLGCGGVLTFREPADAERVLAQADHELHGAQLSLRPAPPRAPARLLLQGLPPGT	not failed
MSFDPIYFLTPIIVMVFSFGMVYKLVKSIKVLMFSALAYFIAIVLKVLVQFFTLGYLASINSLAVLGLYYGLQTSIFEVGLAYVFALLGKLKNGWGYGVSLAMWENGVLISIPTLFIYIAYYFFPLILSTPSQLEYPITQALPLIGLSILERVSSLLIHSSWGYLSVLSVITGRKRLILVAFPMGFVDFLVPFEKYLGILTFEFIFFCIGLICLVMAWSLGKYYRSTSSKDT	failed
MVMEYELRTPLVKDQILKLKVGDVVYITGEIFTARDEAHARALEWMEEGKELPFSFDKGVVYHCGPLVKKNDEWRVVSAGPTTSARMNPFTPKILEKVECMGIIGKGGMSEEVVEAMRGKAAYFAFTGGAGALAAMSIKKVKGVVWEDLGMPEAVWLLEVERFGPCIVAIDAHGNSLYRR	not failed
MQICDSYNQKNSLFNAMNRFIGAVNNMDQTVMVPSLLRDVPLDQEEEKEVTSFQDGDMYGSYVLLKSIRNDIEWGVLQAEERRKEKHGVTTTSLEVSRIEPNDKDLEKLFHYHLSGLHTVLAKLTRKANTLTNRYKQEIGIGGCGN	failed
MSWTVDIPKEVLPDLPPLPEGMQQQFEDTISRDAKQQPTWDRAQAENVRKILESVPPIVVAPEVLELKQKLADVANGKAFLLQGGDCAETFESNTEPHIRANVKTLLQMAVVLTYGASTPVIKMARIAGQYAKPRSSDLDGNGLPNYRGDIVNGVEATPEARRHDPARMIRAYANASAAMNLVRALTSSGTADLYRLSEWNREFVANSPAGARYEALAREIDSGLRFMEACGVSDESLRAADIYCSHEALLVDYERSMLRLATDEEGNEELYDLSAHQLWIGERTRGMDDFHVNFASMISNPIGIKIGPGITPEEAVAYADKLDPNFEPGRLTIVARMGHDKVRSVLPGVIQAVEASGHKVIWQSDPMHGNTFTASNGYKTRHFDKVIDEVQGFFEVHRALGTHPGGIHIEFTGEDVTECLGGAEDITDVDLPGRYESACDPRLNTQQSLELAFLVAEMLRN	failed
MNKTLIINAHPKVDDTSSVSIKVFKHFLESYKELISNNETIEQINLYDDVVPMIDKTVLSAWEKQGNGQELTREEQKVTERMSEILQQFKSANTYVIVLPLHNFNIPSKLKDYMDNIMIARETFKYTETGSVGLLKDGRRMLVIQASGGIYTNDDWYTDVEYSHKYLKAMFNFLGIEDYQIVRAQGTAVLDPTEVLQNAYKEVEEAASRLANKYIFSLEE	not failed
MDMTYYDHGTPAERWERARMFFDAKDYAAAARVLDGLVAQVPEQTGPRLLLARSYYHSAQLRRAEAELRVVVERDPVEHYARLMLGRTLERQGRQEEADAQLRIASALAGDFAEL	failed
MAQFPTPFGGSLDIWAITVEERAKHDQQFHSLKPISGFITGDQARNFFFQSGLPQPVLAQIWALADMNNDGRMDQVEFSIAMKLIKLKLQGYQLPSALPPVMKQQPVAISSAPPFGMGGIASMPPLTAVAPVPMGSIPVVGMSPTLVSSVPTAAVPPLANGAPPVIQPLPAFAHPAATLPK	failed
SFQTVPSTAETSAVLLQDSGWDALAQRLALIETAEHSIDIQYYIWNSDASGHYLASRLLAAADRGVKVRVMLDDINLNEREDLLVALNAHPHVEIRVFNPIPTRRGVTKWVNFLGDFSRLNRRMHNKSFTVDGVFSVVGGRNIGDEYFDLSNEINFRDRDVLVRGSVVYDIQTSFIEYWDSRWSYPVDLLAKEASQEPLLQKQPVLDEIDAPVYKNYPA	failed
MAHEAQKAIARNSLLIRSLPEQHVDALLSQAVWRSYDRGETLFLQEEKAQAIHVVIDGWVKLFRMTPTGSEAVVSVFTRGESFGEAVALRNTPYPVSAEAVTPCEVMHIPSPVFVSLMRRDPEICISILATTFGHLHSLVAQLEQLKAQTGAQRVAEFLLELCDCDTGACEVTLPYDKMLIAGRLGMKPESLSRAFSRLKAAGVTVKRNHAEIEDIALLRDYAESDPADSWSKS	not failed
MVKFIHCSDLHLDSPFKSKSHISPKIFEDVQKSAYESFKNIVDIALQQDVDFVIIAGDLFDSENRTLRAEIFLKQQFERLQNEQIFVYVCHGNHDPLSSKISSNWPDNVSVFSNKVETYEAITKSGETIYIHGFSYENRASYENKIDEYPSSQGQKGIHIGVLHGTYSKSSVNERYTEFILEDLNSKLYHYWALGHIHERQQLSDMPVINYSGNIQGRHFNEQGEKGCLLIEGDHLKLKTKFYPTQYIRFEEATIETDKTSKQGLYEVIQNFKEQVREEGKAFYRLTLVINSETLISPQDLLQVEEMITDYEENENQFVYIDELKIQYAQNDESPLVNEFSAELLVDQTVFDKAMSDLYLNPRASKFLDDYGTFDHTALVNRAEEILKAEMRGEQNDN	failed
MKHKGLIRSYEMEFAFLYRLSDLAVIVTFMLLLVLKDTNTSMDKDYVILSFVGGISFLFMAESGNLYRSWRTSSFREQMFIVCMSWLMTSALLFMVLYFSEVYPLFDRSILALWVTITPALLLAWRVTFRTVLAYLRKMGFNTRTAIIIGQTPHGITLANEIQNHTEHGVLFDGFYDERSSDRLPSSEYPIKGAVNQALERAKRGEVDYVYIAMPMHAKERIASILNQFSDTTANTYLIPDFFTYNLLHSRWDQIGQVQTLSVFDTPFAGVSSWIKRFEDILCSSIILVLISPILLAIAIGIKLTSKGPVIFKQHRYGLDGRKIEVWKFRSMTTMDQGPNIKQATKNDPRITPFGSFLRRTSLDELPQFINVLQGTMSIVGPRPHAVAHNEEYRQIVARYMLRHKVKPGITGWAQINGYRGETDTLDKMEKRVEFDLDYIHHWSVWMDIKIIFLTVFKGFTGSNAY	failed

— a protein production outcome set (Wang et al. 2014)
